Assays:
[1] = biological target: T1, Human NKp46 recombinant protein (human, UniProt O76036 22-258, limits assumed); assay: SPR (Biacore T100), captured on Protein-A chip, recombinant human NKp46 6.25-400 nM, 1:1 kinetic model
T1 construct: Soluble analyte in SPR; also called recombinant human NKp46 proteins
Method: SPR measurements were performed on a Biacore T100 apparatus (Biacore GE Healthcare) at 25° C. In all Biacore experiments HBS-EP+ (Biacore GE Healthcare) and NaOH 10 mM served as running buffer and regeneration buffer respectively. Sensorgrams were analyzed with Biacore T100 Evaluation software. Protein-A was purchased from (GE Healthcare). Human NKp46 recombinant proteins were cloned, produced and purified at Innate Pharma.
Protein-A proteins were immobilized covalently to carboxyl groups in the dextran layer on a Sensor Chip CMS. The chip surface was activated with EDC/NHS (N-ethyl-N′-(3-dimethylaminopropyl) carbodiimidehydrochloride and N-hydroxysuccinimide (Biacore GE Healthcare)). Protein-A was diluted to 10 μg/ml in coupling buffer (10 mM acetate, pH 5.6) and injected until the appropriate immobilization level was reached (i.e. 2000 RU). Deactivation of the remaining activated groups was performed using 100 mM ethanolamine pH 8 (Biacore GE Healthcare).
Monovalent affinity study was conducted following a regular Capture-Kinetic protocol recommended by the manufacturer (Biacore GE Healthcare kinetic wizard). Seven serial dilutions of human NKp46 recombinant proteins, ranging from 6.25 to 400 nM were sequentially injected over the captured Bi-Specific antibodies and allowed to dissociate for 10 min before regeneration. The entire sensorgram sets were fitted using the 1:1 kinetic binding model.

human FcRn = biological target: T2, human FcRn (human, UniProt P55899 24-297; P61769 21-119, limits assumed); assay: SPR, recombinant human FcRn immobilized on chip; Steady State
T2 construct: also called recombinant FcRn proteins
T2 sequence (P55899 24-297 limits assumed, chain 1 of 2): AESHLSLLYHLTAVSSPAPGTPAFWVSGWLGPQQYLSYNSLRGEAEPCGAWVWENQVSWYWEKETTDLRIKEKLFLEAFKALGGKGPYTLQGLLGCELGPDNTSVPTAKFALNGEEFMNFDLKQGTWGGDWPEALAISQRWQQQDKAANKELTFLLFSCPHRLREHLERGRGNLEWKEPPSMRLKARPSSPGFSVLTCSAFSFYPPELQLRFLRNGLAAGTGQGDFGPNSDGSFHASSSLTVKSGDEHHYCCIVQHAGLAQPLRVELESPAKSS
T2 sequence (P61769 21-119 limits assumed, chain 2 of 2): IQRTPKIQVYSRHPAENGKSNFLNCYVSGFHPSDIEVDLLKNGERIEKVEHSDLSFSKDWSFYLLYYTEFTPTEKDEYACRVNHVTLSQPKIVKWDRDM

T1 sequence (O76036 22-258 limits assumed): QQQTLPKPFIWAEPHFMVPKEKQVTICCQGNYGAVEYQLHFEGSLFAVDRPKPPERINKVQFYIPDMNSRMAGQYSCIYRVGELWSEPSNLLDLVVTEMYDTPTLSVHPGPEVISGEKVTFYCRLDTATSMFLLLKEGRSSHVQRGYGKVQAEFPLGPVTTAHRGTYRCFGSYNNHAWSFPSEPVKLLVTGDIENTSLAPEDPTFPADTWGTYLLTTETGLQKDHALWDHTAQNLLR

B1: CD19-F9A-NKp46-3 (bispecific antibody, human IgG1, kappa)
chain 1: not shown
chain 2: DIVMTQSPATLSVTPGDRVSLSCRASQSISDYLHWYQQKSHESPRLLIKYASQSISGIPSRFSGSGSGSDFTLSINSVEPEDVGVYYCQNGHSFPLTFGAGTKLELKASTKGPSVFPLAPSSKSTSGGTAALGCLVKDYFPEPVTVSWNSGALTSGVHTFPAVLQSSGLYSLSSVVTVPSSSLGTQTYICNVNHKPSNTKVDKRVEPKSCDKTH
chain 3: not shown
notes: Heterotrimer, monomeric Fc with tandem CH3, N297S, wild-type hinge cysteines
Kd [1]: 32 nM
koff [1]: 0.00669 s⁻¹
kon [1]: 207000 M⁻¹ s⁻¹
Kd (human FcRn): 858 nM

Reference: patent US20200048345A1 (INNATE PHARMA, published 2020)
